Fewer inactive variants are shown than the library holds.
B1: TPR 5TU (parent)
chain: GGAUCUUCUCGAUCUAACAAAAAAGACAAAUCUGCCACAAAGCUUGAGAGCAUCUUCGGAUGCAGAGGCGGCAGCCUUCGGUGGCGCGAUAGCGCCAACGUUCUCAACUAUGACACGCAAAACGCGUGCUCCGUUGAAUGGAGUUUAUCAUG

Variants of: B1
Test: polymerase ribozyme fitness, log enrichment relative to wild type (log ratio); higher = more active; in vitro selection for triplet polymerase activity
Procedure, shortened: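 Fitness compares each genotype's enrichment to that of the wild type on a logarithmic scale, averaging replicates with inverse-variance weights. The logarithm is base 2. Enrichment came from Illumina sequencing of input and output libraries after one triplicate round of in vitro selection, which included frozen incubation at −7 °C, of PCR-built, transcribed mutant libraries of each subunit of a heterodimeric triplet polymerase ribozyme. Only genotypes with ≥10 input reads and ≥1 read per output were kept.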

| Variant | polymerase ribozyme fitness (log ratio) |
| --- | --- |
| C105U A120G A122C | 0.479 |
| C93U A119G C123U U135G | -4.18 |
| A107G G141C | -3.86 |
| A107G G141A | -2.72 |
| U104G A142G G152U | -3.73 |
| G94A U101C G136C A137G U151A | ≤ -4.2 |
| U101G G133U | -2.8 |
| C96A A97G G143A | -0.965 |
| C96A G133U | -3.9 |
| C95G A98G | -1.57 |
| A98G A107U | -3.24 |
| G112A U148C | -4.13 |
| U104G C118A A122C | -2.35 |
| G94C A106G | -1.31 |
| C95U C96A | -1.02 |
| C96A A122C U139G A150C | -3.67 |
| C108A A121U | ≤ -4.2 |
| C96G C116A A138C A147C | -3.36 |
| U102G G141C | -3.94 |
| C99A U135A | -2.77 |
| A106U U135A A150U | -1.22 |

| Variant | polymerase ribozyme fitness (log ratio) |
| --- | --- |
| G94C A137C C149U | -3.76 |
| G94A C95G G133A U134G A137U | -4.11 |
| C99A U146G | -1.41 |
| C99A U146A | -1.15 |
| C96U U104G | -1.59 |
| C93U U146G | -1.47 |
| C93U U146A | -1.46 |
| C93G G128U U146C | ≤ -4.2 |
| A113U C116U | -1.33 |
| G94A U101C | -0.823 |
| C105A C129G | ≤ -4.2 |
| G94C U135A G141A | -2.22 |
| C105A G140U | -4.11 |
| C96U C99A G133C G141A | ≤ -4.2 |
| A98U A150C | -2.82 |
| C103A U109G | -3.53 |
| G94U G140U | -3.84 |
| G100A | -3.76 |
| G100U | -2.58 |
| G100C | -3.72 |
| C99U U104G | -1.84 |

| Variant | polymerase ribozyme fitness (log ratio) |
| --- | --- |
| C103G C123G G136U | -2.77 |
| C96A C116U | -0.662 |
| G100A A107U | ≤ -4.2 |
| C114A C132U G133C | -3.96 |
| A107C A142C | -4.05 |
| U101G U134A U144C A150U | -4.09 |
| C103A A150G | -4.09 |
| C93U C99G G136A U145G | -1.59 |
| U109G A115U C125A | -4.05 |
| A107U U109G | ≤ -4.2 |
| G94C G124U G143U | -3.6 |
| A98U U134G | -2.65 |
| C96U C123U G136U | -2.2 |
| C93U C116U A122U A150C | -3.57 |
| A98G G133C | -1.69 |
| A97G A98U | -0.253 |
| C96G A142G U145G A147U | -2.85 |
| C95U C99A G117U U148A | ≤ -4.2 |
| C96G G141A | -0.288 |
| C96U A119U | -0.778 |
| C99G U134C | -0.713 |

| Variant | polymerase ribozyme fitness (log ratio) |
| --- | --- |
| A98U C118U U144G | 0.244 |
| U101G A150G | -0.649 |
| C95U C149A | ≤ -4.2 |
| U102C C131U U134G | -4.13 |
| U109G U139C A142U | -3.41 |
| A97C C103G C114G | -3.86 |
| C93U C99U C114G | -3.73 |
| C95U C116G G133U | ≤ -4.2 |
| C96U A98G | -1.3 |
| C96A C116U G136U A150G | -4.06 |
| C96U U102G U144A A150U | ≤ -4.2 |
| C93U C118A U144G | -1.06 |
| G94A C149U | -1.24 |
| C96U C132A | -1.63 |
| U104A G143A | -1.63 |
| C105A C125A | -3.83 |
| C96A U146A U148A | -4.17 |
| G94A G117C A137G | -3.09 |
| G94C C96U G136A G140A | ≤ -4.2 |
| C99U A107U | -3.88 |

From the RNAGym collection of RNA variant scans (doi:10.1073/pnas.2313332121)
